{"source": "patent US11034736B2", "about": "“Anti-viral cnidarins” (priority 2014, dated 2021)", "key": {"HIV-1US/92/727": {"test_system": "HIV-1US/92/727", "test": "Anti-HIV evaluation in PHA-stimulated human PBMCs, reverse transcriptase in supernatant", "assay_type": "cell-based", "conditions": "HIV-1US/92/727, human PBMCs, 7 days", "description": "(§1) The cultures were incubated for 7 days at 37° C./5% CO2. Efficacy of the compounds was evaluated by measuring the amount of reverse transcriptase in the culture supernatant and toxicity was evaluated using XTT to measure cell viability. AZT was evaluated in parallel as an assay control."}, "in vitro": {"test": "in vitro", "conditions": "human", "description": "as §1"}, "HIV-1RF": {"test_system": "HIV-1RF", "test": "XTT-tetrazolium anti-HIV assay, HIV-1RF in CEM-SS cells", "assay_type": "cell-based", "conditions": "for EC50: HIV-1RF, T-tropic laboratory strain, CEM-SS cells, XTT, 6 days", "description": "(§2) A 2,3-bis-[2-methoxy-4-nitro-5-sulfophenyl]-2H-tetrazolium-5-carboxanilide inner salt (XTT)-tetrazolium-based assay was used to determine the anti-HIV activity of CNID-1, -2 and -3 against a T-tropic laboratory strain (HIV-1RF) in T-lymphoblastic CEM-SS cells as described previously (Gulakowski et al., J. Virol. Methods, 33: 87-100 (1991)). CEM-SS cells were maintained in RPMI 1640 media without phenol red and supplemented with 10% fetal bovine serum (BioWhittaker), 2 mM L-glutamine (BioWhittaker), and 50 μg/ml gentamicin (BioWhittaker) (complete medium). Exponentially growing cells were washed and resuspended in complete medium, and a 50 μl aliquot containing 5×10^3 cells was added to individual wells of a 96-well round-bottom microtiter plate containing serial dilutions of the respective cnidarin protein in a volume of 100 μl of medium. Stock supernatants of HIV-1RF were diluted in complete medium to yield sufficient cytopathicity (80-90% cell kill in 6 days), and a 50 μl aliquot was added to appropriate wells. Plates were incubated for 6 days at 37° C. and then stained for cellular viability using XTT.\n(§3) The HIV reverse transcriptase inhibitor 3′-Azido-3′-deoxythymidine (AZT) was used as a positive control. All assays were carried out in triplicate for all viruses and cells."}, "HIV-1IIIB gp120 [1]": {"molecular_target": "T1, HIV-1IIIB gp120 (Human immunodeficiency virus type 1 group M subtype B, UniProt P04578)", "description": "Recombinant CNID-1 (in fusion with Trx and rEK cleaved forms of rCNID-1) and recombinant HIV-1IIIIB gp120 (Immuno Diagnostics, Woburn, Mass.) controls were resolved on 4-12% Bis-Tris pre-cast SDS-PAGE gels (Life Technologies, Grand Island, N.Y.) and blotted onto polyvinylidine difluoride membranes. Membranes were blocked with 3% BSA for 2 hours. For CNID-1 detection, the membrane was incubated overnight with rabbit anti-CNID-1 (1:2000 dilution). For detection of rCNID-1 binding to gp120, membranes were incubated overnight with 1 μg/ml rgp120, then washed thrice with PBST before being incubated with polyclonal rabbit anti-gp120 (1:1000 dilution) overnight. Membranes were washed three times with PBST and further incubated with goat anti-rabbit (H+L), peroxidase conjugated secondary antibody (Thermo Fisher Scientific Inc., Rockford, Ill.) at a 1:1000 dilution for 1 hr. After washing with PBST, signals were detected on Hyblot CL autoradiography film (Denville Scientific, Metuchen, N.J.) using the SignalFire ECL reagent system (Cell Signaling Technology Inc., Danvers, Mass.) according to the manufacturer's protocol."}, "HIV-1IIIB gp120 [2]": {"molecular_target": "T1, HIV-1IIIB gp120", "conditions": "ELISA, 100 ng/well gp120", "description": "High protein binding Greiner 96-well plates (VWR, Bridgeport, N.J.) were coated with 1 pmol/well of recombinant HIV-1IIIIB gp120 (Immuno Diagnostics, Woburn, Mass.) or recombinant HIV-1HXB2 gp41 (Vybion Inc., Ithaca, N.Y.) at 4° C. overnight. The wells were emptied and then blocked with 200 μl/well of 3% non-fat dry milk (Bio-Rad, Hercules, Calif.) blocking solution for 2 hrs. A control plate was incubated with blocking solution only. After washing three times with PBST, 0.5-log10 serial dilutions of rCNID-1-Trx were added to triplicate wells of gp120−, gp41− and the blocking solution control plate, and the plates were incubated for 2 hrs. The plates were washed with PBST and 100 W/well of a 1:250 dilution of polyclonal rabbit anti-CNID-1 antibody was added and allowed to incubate for 1 hr, followed by three washes with PBST. Goat anti-rabbit (H+L), peroxidase conjugated secondary antibody (Thermo Fisher Scientific Inc., Rockford, Ill.) was added to each well (100 μl/well of a 1:1000 dilution) and further incubated for 1 hr, followed by three washes with PBST. The TMB 2-component Microwell peroxidase substrate kit (KPL Inc., Gaithersburg, Md.) was used for peroxidase detection: 100 W/well, incubation for 5-10 min and the reaction was stopped by addition of 0.5M HCl (100 W/well) before reading the absorbance at 450 nm.\nBriefly, 100 ng/wells of glycosylated recombinant HIV-1IIIB gp120 (Immuno Diagnostics, Woburn, Mass.) or nonglycosylated HIV-1 gp120 (MyBioSource LLC, San Diego, Calif.) was added to the wells of two 96-well plates, and incubated overnight at 4° C. The plates were washed and blocked as previously described. Serial dilutions of rCNID-1-Trx were added (100 W/well); incubation done for 2 hrs. The plates were then washed and visualized using anti-CNID-1 polyclonal antibodies as above."}, "human PBMCs": {"test_system": "human PBMCs", "test": "Toxicity in PHA-stimulated human PBMCs, XTT cell viability", "conditions": "human PBMCs, XTT, 7 days", "description": "as §1"}, "PBMC": {"test_system": "PBMC", "test": "Cell viability of PBMC cultures (CellTiter formazan dye reduction)", "assay_type": "cell-based, human", "excerpt": "(§4) To test the anti-HIV activity of CNID1 against HIV primary isolates in fresh human cells, monocyte-tropic HIV-1 strain Ba-L was obtained from the NIAID AIDS Research and Reference Reagent Program (National Institutes of Health, Bethesda, Md.). The low passage HIV-1 pediatric isolate ROJO was derived as described previously (Buckheit et al., AIDS Res. Hum. Retroviruses, 10: 1497-1506 (1994)). Human peripheral blood mononuclear cells (PBMCs) and macrophages were isolated from hepatitis and HIV seronegative donors following Ficoll-Paque centrifugation as described elsewhere (Gartner & Popovic, Techniques in HIV Research, Aldovini, A. and Walker B., eds., pp. 59-63, Stockton Press, New York, 1990). Antiviral assays were carried out with 3-day-old phytohaemagglutinin/interleukin-2 stimulated PBMCs or 6-day-cultured monocyte/macrophages. […] HIV-1 replication in PBMC (ROJO) or monocyte macrophage (Ba-L) cultures were determined by measurement of reverse transcriptase activity (Buckheit et al., Antiviral Res., 21: 247-265 (1993)) in the supernatants or p24 antigen expression by ELISA (Coulter, Hialeah, Fla.), respectively. Cell viability by formazan dye reduction was determined in replicated cultures using the CellTiter reagent (Promega, Madison, Wis.). […]"}, "HIV-1IIIB [3]": {"test_system": "HIV-1IIIB", "test": "Viral attachment assay, cell-associated p24 antigen in HeLa CD4 LTR β-gal cells", "assay_type": "cell-based", "description": "(§5) Attachment and fusion assays were performed in HeLa-CD4-LTR-β-galactosidase cell lines as described previously (Gartner & Popovic, (1990), supra) with the following modifications. Following the interaction of HIV-1IIIIIB with HeLa CD4 LTR β-gal cells, viral attachment to HeLa CD4 LTR β-gal cells was detected as cell-associated p24 antigen following a 1 hour adsorption of virus and vigorous washing for removal of unbound virus. Fusion of HIV-1IIIIB with HeLa CD4 LTR β-gal cells was detected by chemiluminescence using a single-step lysis and detection method (Tropix Gal-screen, Bedford, Mass.) and results reported as EC50 values. Chicago Sky Blue, a polysulfonic acid dye inhibitor of HIV attachment and fusion, was used as a positive control for all assays (Clanton et al., J. Acquired Immune Defic. Syndr., 5: 771-781 (1992))."}, "[4]": {"test_system": "HeLa CD4 LTR β-galactosidase cells", "test": "Cytotoxicity in the attachment and fusion assays", "assay_type": "cell-based", "description": "as §3, §5"}, "HIV-1IIIB [5]": {"test_system": "HIV-1IIIB", "test": "Viral fusion assay, chemiluminescence in HeLa CD4 LTR β-gal cells", "assay_type": "cell-based", "description": "as §5"}, "CEM-SS cells": {"test_system": "CEM-SS cells", "test": "Direct toxicity to uninfected CEM-SS control cells (XTT)", "assay_type": "cell-based, human", "description": "as §2, §3"}, "Macrophage": {"test_system": "Macrophage", "test": "Cell viability of monocyte/macrophage cultures (CellTiter formazan dye reduction)", "assay_type": "cell-based, human", "conditions": "macrophages", "excerpt": "as §4"}, "HIV-1ROJO": {"test_system": "HIV-1ROJO", "test": "HIV-1 ROJO replication in human PBMC cultures, supernatant reverse transcriptase activity", "assay_type": "cell-based", "conditions": "T-tropic primary isolate", "excerpt": "as §4"}}, "note": "Values joined by “and” are separate entries in the source; they are usually repeats but may differ in a detail not shown here. Identical values can stand only once. Like-named read-outs stand apart in the source and are kept apart here."}
{"molecule": "Cc1cn([C@H]2C[C@H](N=[N+]=[N-])[C@@H](CO)O2)c(=O)[nH]c1=O", "note": "[AZT, 3′-Azido-3′-deoxythymidine, reference compound]", "values": [{"measurement": "EC50", "setting": "HIV-1US/92/727; Human immunodeficiency virus 1, PBMC, 168 h, read-out: EC50", "result": 1.88, "unit": "nM"}, {"measurement": "CC50 at 7 days", "setting": "in vitro", "result": "> 1000", "unit": "nM"}]}
{"molecule": "rCNID-1-Trx: thioredoxin-hexahistidine-CNID-1 fusion protein expressed in E. coli (protein, left off: large carriers; small tags and cut ends, thioredoxin-hexahistidine-CNID-1 fusion protein expressed in E. coli) GRATLGQLKTSTIPPVTFDVPFDGANIPQDVRFTIATVNGGKGALYNAELGESAGHTIVLESDGDHPIPGTFDPKSGRGLDYLPRGLVLFSSHNYVGNMKMYTEPDSDITADFPPGTPFGVSSAITGEGSAFQLNTGIDHTGEFEIIPPNTKRNLAGVFDNEIRSVSPTGGK", "values": [{"measurement": "Activity after extraction and refolding from inclusion bodies", "setting": "HIV-1RF; CaCl2 presence", "result": "low-to-partially active"}, {"measurement": "Activity after extraction and refolding from inclusion bodies", "setting": "HIV-1RF; absence of CaCl2", "result": "inactive"}, {"measurement": "Binding to gp120 by immunoblot", "setting": "HIV-1IIIB gp120 [1]", "result": "specific binding"}, {"measurement": "Binding to gp120", "setting": "HIV-1IIIB gp120 [2]", "result": "binds to HIV-1 glycoproteins, gp120"}]}
{"molecule": "rCNID-1 truncated forms: truncated forms of rCNID-1 (~14-16 kDa) from enterokinase digestion of rCNID-1-Trx (protein) GRATLGQLKTSTIPPVTFDVPFDGANIPQDVRFTIATVNGGKGALYNAELGESAGHTIVLESDGDHPIPGTFDPKSGRGLDYLPRGLVLFSSHNYVGNMKMYTEPDSDITADFPPGTPFGVSSAITGEGSAFQLNTGIDHTGEFEIIPPNTKRNLAGVFDNEIRSVSPTGGK", "values": [{"measurement": "EC50", "setting": "HIV-1RF", "result": "45 to 150", "unit": "nM"}, {"measurement": "Binding to gp120 by immunoblot", "setting": "HIV-1IIIB gp120 [1]", "result": "specific binding"}]}
{"molecule": "CNID-3: HIV-inhibitory protein from soft coral Synthecium sp.; 170 amino acids, 17,963 Da, SEQ ID NO: 3 (protein) GKSAYPGQITSDVPFVTFDVPFDGVNIPQDVRFTIATVNGGKLALYNAKLGDPANNTIVLESDGDHPIPGTFDDPKGRGLDYAFGGLLLFSFHNFVGHKKLYREPDSDITADFPPGLGGSSAITGEGSTVQLYTGIDFTGISEIMPVNTKRNFVVAFGNEFKSVSPTGGG", "values": [{"measurement": "EC50", "setting": "HIV-1US/92/727", "result": 0.0160, "unit": "mg/L"}, {"measurement": "TC50", "setting": "human PBMCs", "result": ">0.5", "unit": "mg/L"}, {"measurement": "CC50", "setting": "PBMC", "result": 155, "unit": "nM"}, {"measurement": "EC50", "setting": "HIV-1RF", "result": 0.114, "unit": "nM"}, {"measurement": "Inhibition of viral attachment to the cell", "setting": "HIV-1IIIB [3]", "result": "not attachment"}, {"measurement": "EC50", "setting": "HIV-1IIIB [3]; read-out: Inhibition of Attachment EC50", "result": "> 55.7", "unit": "nM"}, {"measurement": "CC50", "setting": "[4]; attachment assay, read-out: Inhibition of Attachment CC50", "result": "> 55.7", "unit": "nM"}, {"measurement": "CC50", "setting": "[4]; fusion assay, read-out: Inhibition of Fusion CC50", "result": "> 55.7", "unit": "nM"}, {"measurement": "Inhibition of viral fusion", "setting": "HIV-1IIIB [5]", "result": "inhibit HIV viral fusion"}, {"measurement": "EC50", "setting": "HIV-1IIIB [5]; read-out: Inhibition of Fusion EC50", "result": 2.06, "unit": "nM"}, {"measurement": "CC50", "setting": "CEM-SS cells", "result": "> 199", "unit": "nM"}, {"measurement": "CC50", "setting": "Macrophage", "result": 4.62, "unit": "nM"}, {"measurement": "EC50", "setting": "HIV-1ROJO", "result": "1.55 nM and 1.5 nM"}]}
